# In patent US20260234667A1:
# B1: ITAC (CXCL11) (ligand, UniProt O14625 22-94, looked up, species assumed)
# C-X-C motif chemokine 11: FPMFKRGRCLCIGPGVKAVKVADIEKASIMYPSNNCDKIEVIITLKENKGQRCLNPKSKQARLIIKKVERKNF
# Target: human CXCR3 isoform 1 (human) (UniProt P49682)
# Experiment: cell-based or functional assay
# UniProt P49682, sequence (P49682 whole entry, canonical isoform): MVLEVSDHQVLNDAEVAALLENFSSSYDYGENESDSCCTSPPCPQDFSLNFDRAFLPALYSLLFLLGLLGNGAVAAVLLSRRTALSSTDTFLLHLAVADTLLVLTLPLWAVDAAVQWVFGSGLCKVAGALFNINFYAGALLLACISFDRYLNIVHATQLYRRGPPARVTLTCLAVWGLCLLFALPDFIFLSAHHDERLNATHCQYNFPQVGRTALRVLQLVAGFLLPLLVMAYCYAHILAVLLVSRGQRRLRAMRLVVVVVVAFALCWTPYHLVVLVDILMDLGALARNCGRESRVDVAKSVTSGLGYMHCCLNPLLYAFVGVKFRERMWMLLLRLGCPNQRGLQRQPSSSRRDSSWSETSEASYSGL
binder,measurement,value
B1,"migration of B cells to 100 ng/ml ITAC (CXCL11), fold increase against control cells",10 fold
same,"migration of CD4 cells to 100 ng/ml ITAC (CXCL11), fold increase against control cells",> 4 fold
same,"migration of CD8 cells to 100 ng/ml ITAC (CXCL11), fold increase against control cells",2.5 fold
